The source of these data is patent US20210155689A1 (SHANGHAI PHARMAEXPLORER, published 2021).

Assay [1] addresses human LAG-3 on cells (HEK293-hLAG-3 stable cell line) (human) (UniProt P18627). The assay is described as follows: FACS, HEK293-hLAG-3, antibody 0.320 nM.
In assay [2] the target is LAG-3-hFc protein (human LAG-3 extracellular region with hFc tag) (human) (UniProt P18627). The assay is described as follows: FACS, inhibition of LAG-3-hFc binding to MHC II on Raji cells, antibody 2.469 nM. In general terms: Flow cytometry measures light scatter and fluorescence of single cells or particles in a stream.
Assay [3] deals with human LAG-3 on cells (HEK293-hLAG-3 stable cell line) (human) (UniProt P18627). Kind of assay: FACS, HEK293-hLAG-3, antibody 0.064 nM.
In assay [4] the target is monkey LAG-3 on cells (HEK293-cLAG-3 stable cell line) (monkey). The assay is described as follows: FACS, HEK293-cLAG-3, antibody 200.000 nM.
Chain of monkey LAG-3 on cells (HEK293-cLAG-3 stable cell line) (monkey) (P18627 other isoform, or with tags, fused parts or gaps limits assumed): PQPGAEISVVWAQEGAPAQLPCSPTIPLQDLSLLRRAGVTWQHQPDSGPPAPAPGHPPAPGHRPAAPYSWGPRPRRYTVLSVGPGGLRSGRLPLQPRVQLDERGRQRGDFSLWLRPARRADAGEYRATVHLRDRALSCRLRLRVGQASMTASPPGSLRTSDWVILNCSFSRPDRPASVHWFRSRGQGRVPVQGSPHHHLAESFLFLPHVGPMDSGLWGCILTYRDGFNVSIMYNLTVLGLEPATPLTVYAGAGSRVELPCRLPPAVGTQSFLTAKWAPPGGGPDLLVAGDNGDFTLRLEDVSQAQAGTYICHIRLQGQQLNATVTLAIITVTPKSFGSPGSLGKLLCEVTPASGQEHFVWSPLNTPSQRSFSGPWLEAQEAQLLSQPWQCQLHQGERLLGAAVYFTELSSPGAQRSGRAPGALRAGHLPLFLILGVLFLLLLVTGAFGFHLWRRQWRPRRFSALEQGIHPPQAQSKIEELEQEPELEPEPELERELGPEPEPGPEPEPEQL
Assay [5] has as its target LAG-3-hFc protein (human LAG-3 extracellular region with hFc tag) (human) (UniProt P18627). The assay is described as follows: ELISA, inhibition of LSECtin-His binding to coated LAG-3-hFc, antibody 0.320 nM, replicate 2. For orientation: ELISA stands for enzyme-linked immunosorbent assay.
Assay [6] has the same target. Kind of assay: ELISA, inhibition of LSECtin-His binding to coated LAG-3-hFc, antibody 40.000 nM, replicate 1.
Assay [7] shares this target. Kind of assay: ELISA, inhibition of LSECtin-His binding to coated LAG-3-hFc, antibody 0.064 nM, replicate 1.
The target in assay [8] is monkey LAG-3 on cells (HEK293-cLAG-3 stable cell line) (monkey). The assay is described as follows: FACS, HEK293-cLAG-3, antibody 0.064 nM.
Assay [9] deals with human LAG-3 on cells (HEK293-hLAG-3 stable cell line) (human) (UniProt P18627). The assay is described as follows: FACS, HEK293-hLAG-3, antibody 40 nM.
Assay [10] deals with monkey LAG-3 on cells (HEK293-cLAG-3 stable cell line) (monkey). The assay is described as follows: FACS, HEK293-cLAG-3, antibody 8.000 nM.
Assay [11] addresses human LAG-3 on cells (HEK293-hLAG-3 stable cell line) (human) (UniProt P18627). Kind of assay: cell-based or functional assay.
The target is the same in assay [12]. The assay is described as follows: FACS, HEK293-hLAG-3, antibody 0.064 nM. The source holds these as a separate data set.
Assay [13] deals with LAG-3-hFc protein (human LAG-3 extracellular region with hFc tag) (human) (UniProt P18627). Kind of assay: ELISA, inhibition of LSECtin-His binding to coated LAG-3-hFc, antibody 1.600 nM, replicate 2.
Assay [14] shares this target. Kind of assay: FACS, inhibition of LAG-3-hFc binding to MHC II on Raji cells, antibody 66.667 nM.
For assay [15] the target is unchanged. The assay is described as follows: FACS, inhibition of LAG-3-hFc binding to MHC II on Raji cells, antibody 0.823 nM.
For assay [16], the target named is human LAG-3 on cells (HEK293-hLAG-3 stable cell line) (human) (UniProt P18627). The assay is described as follows: FACS, HEK293-hLAG-3, antibody 40.000 nM.
The target of assay [17] is LAG-3-hFc protein (human LAG-3 extracellular region with hFc tag) (human) (UniProt P18627). The assay is described as follows: FACS, inhibition of LAG-3-hFc binding to MHC II on Raji cells, antibody 0.274 nM.
Assay [18] has the same target. Kind of assay: ELISA, inhibition of LSECtin-His binding to coated LAG-3-hFc, antibody 0.320 nM, replicate 1.
For assay [19], the target named is T1, human LAG-3 on cells (HEK293-hLAG-3 stable cell line) (human, UniProt P18627 23-525).
T1 sequence: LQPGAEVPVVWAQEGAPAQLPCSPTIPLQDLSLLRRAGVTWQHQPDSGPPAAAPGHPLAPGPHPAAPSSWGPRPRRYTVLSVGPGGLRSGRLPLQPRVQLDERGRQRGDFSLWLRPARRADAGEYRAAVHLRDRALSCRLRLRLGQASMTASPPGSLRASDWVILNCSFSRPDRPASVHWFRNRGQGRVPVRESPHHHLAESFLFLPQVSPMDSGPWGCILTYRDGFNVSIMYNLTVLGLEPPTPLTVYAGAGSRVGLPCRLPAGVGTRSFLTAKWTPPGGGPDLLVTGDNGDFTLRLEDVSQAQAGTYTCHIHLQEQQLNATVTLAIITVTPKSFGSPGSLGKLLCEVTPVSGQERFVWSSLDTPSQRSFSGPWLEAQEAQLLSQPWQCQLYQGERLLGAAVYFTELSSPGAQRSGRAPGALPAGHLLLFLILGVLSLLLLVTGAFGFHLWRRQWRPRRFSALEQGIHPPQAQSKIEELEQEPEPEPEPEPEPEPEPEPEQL
The assay is described as follows: FACS, HEK293-hLAG-3, antibody 0.32 nM.

Assay [20] has as its target T1, human LAG-3 on cells (HEK293-hLAG-3 …). The assay is described as follows: FACS, HEK293-hLAG-3, antibody 8 nM. From the text:
A. The binding of antibodies to LAG-3 expressing cells was detected by Flow cytometry (FACS), wherein the method was according to that of Example 5.

In assay [1], hIgG control (antibody) displayed a Mean fluorescence intensity of 3.1. The Inhibition rate (%) in assay [2] was 2.1%. This molecule registered a Mean fluorescence intensity in assay [3] of 3.1. Besides, the Mean fluorescence intensity in [4] was determined as 2.9. Besides, the Inhibition rate (%) in [5] was -10.1%. Also, the Inhibition rate (%) in assay [6] is 0.7%. Also, the Inhibition rate (%) in assay [7] is -26.4%. This molecule yielded a Mean fluorescence intensity in assay [8] of 3.04. For the same molecule, in [9], the Mean fluorescence intensity turned out to be 4. In addition, in [10], the Mean fluorescence intensity is 3.16. In [11], this molecule yielded an IL-2 production, SEB-dependent PBMC stimulation test, 0.0032 ug/ml, N = 1 of 1620 pg/mL; an IL-2 production, SEB-dependent PBMC stimulation test, 0.0032 ug/ml, N = 2 of 1590 pg/mL; an IL-2 production, SEB-dependent PBMC stimulation test, 0.016 ug/ml, N = 1 of 1220 pg/mL; an IL-2 production, SEB-dependent PBMC stimulation test, 0.016 ug/ml, N = 2 of 1660 pg/mL. In [11], this molecule returned an IL-2 production, SEB-dependent PBMC stimulation test, 0.08 ug/ml, N = 1 of 1020 pg/mL; an IL-2 production, SEB-dependent PBMC stimulation test, 0.08 ug/ml, N = 2 of 1650 pg/mL; an IL-2 production, SEB-dependent PBMC stimulation test, 0.4 ug/ml, N = 1 of 1060 pg/mL; an IL-2 production, SEB-dependent PBMC stimulation test, 0.4 ug/ml, N = 2 of 1680 pg/mL. In assay [11], the IL-2 production, SEB-dependent PBMC stimulation test, 2 ug/ml, N = 1 worked out at 1130 pg/mL; the IL-2 production, SEB-dependent PBMC stimulation test, 2 ug/ml, N = 2 was 1630 pg/mL; the IL-2 production, SEB-dependent PBMC stimulation test, 10 ug/ml, N = 1 came to 1280 pg/mL; the IL-2 production, SEB-dependent PBMC stimulation test, 10 ug/ml, N = 2 was determined as 1490 pg/mL. In addition, in assay [11], the IL-2 production, antigen-specific T lymphocyte stimulation test, 0.016 ug/ml, N = 1 came out at 336 pg/mL; the IL-2 production, antigen-specific T lymphocyte stimulation test, 0.016 ug/ml, N = 2 worked out at 298 pg/mL; the IL-2 production, antigen-specific T lymphocyte stimulation test, 0.08 ug/ml, N = 1 came out at 286 pg/mL; the IL-2 production, antigen-specific T lymphocyte stimulation test, 0.08 ug/ml, N = 2 amounted to 282 pg/mL. In [11], this molecule came in with an IL-2 production, antigen-specific T lymphocyte stimulation test, 0.4 ug/ml, N = 1 of 322 pg/mL; an IL-2 production, antigen-specific T lymphocyte stimulation test, 0.4 ug/ml, N = 2 of 286 pg/mL; an IL-2 production, antigen-specific T lymphocyte stimulation test, 2 ug/ml, N = 1 of 382 pg/mL; an IL-2 production, antigen-specific T lymphocyte stimulation test, 2 ug/ml, N = 2 of 317 pg/mL. In [11], this molecule returned an IL-2 production, antigen-specific T lymphocyte stimulation test, 10 ug/ml, N = 1 of 338 pg/mL and an IL-2 production, antigen-specific T lymphocyte stimulation test, 10 ug/ml, N = 2 of 277 pg/mL. The Mean fluorescence intensity in [12] was 4. In addition, the Inhibition rate (%) in assay [13] was -7.4%. In addition, the Inhibition rate (%) in assay [14] stood at 12.1%. For the same molecule, the Inhibition rate (%) in [15] worked out at 10.2%. The molecule further registered a Mean fluorescence intensity in assay [16] of 3.1. For the same molecule, the Inhibition rate (%) in assay [17] amounted to 8.1%. Besides, the Inhibition rate (%) in assay [18] is -7.9%.

B1: 556F6B8 mouse-human chimeric antibody (antibody, V domains shown)
VH: RVQLKQSGPGLVQPSQSLSITCTVSGFSLIKYGVHWVRQSPGEGLEWLGVIWRGGITDYNAAFMSRLSITKDNSKSQVFFKMNSLQADDTAIYYCAKWDGPLAMDYWGQGTSVTVSS
VL: DIVMTQSHKFLSTSVGDRVSITCKASQDVGTTVAWYQQKPGQSPKLLIYWASTRHTGVPDRFTGSGSGTDFTLTISNVQSEDLADYFCQQYSSYPYTFGGGTKLEIK
notes: also called mAb123-556F6B8; 556F8B8
The molecule B1 yielded a Mean fluorescence intensity in [19] of 29.

B2: 405B8H3 mouse-human chimeric antibody (antibody, V domains shown)
VH: QVQLQQSGAELVRPGASVTLSCKASGYTFTDYEMHWVKQTPVHGLEWIGATDPETGNSAYNQKFKGKAIMTADKSSSTAYMELRSLTSEDSAVYYCISTGWNDWGQGTSLTVSS
VL: DIKMTQSPSSMYASLGERVTITCKASQDINSYLSWFQQKPGKSPKTLIYRADRLLDGVPSRFSGSGSGQDYSLTISSLEYGDMGIYYCLQYDEFPYTFGGGTKLEIK
notes: also called mAb103-405B8H3
The molecule B2 showed a Mean fluorescence intensity in [20] of 226.
